Experimental data taken from the supplement of paper PMC6757056.
± gives the standard deviation of the averaged measurements.

B1: library; a variant is named by its letters at N, in order (parent)
chain: GCUGUCACCGGUGUAUUACCCUAGUGGUCGACCGGUCUGAUGAGUCUNNNNNNAGACGAAACAGC

Tests used:
hypoxanthine [1] = variants of: B1; test: FACS-Seq fitted mean relative fluorescence mCherry/BFP without ligand (log10 relative fluorescence); ligand: hypoxanthine (xanthine aptamer); higher = higher reporter protein expression; details: HEK293T, ligand present: no
How it was run: (§1)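 Fluorescence values are fitted normal means of bin counts along the mCherry/BFP axis. HEK293T libraries lentivirally carrying the ribozyme switch in an mCherry reporter, with an EF1α-BFP marker, were enriched, exposed to ligand or not for 48 h, and sorted into 6 bins. Genomic DNA per bin was PCR-amplified, barcoded and run on MiSeq. Means of log10(mCherry/BFP) were scaled to five spiked-in control ribozymes.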

hypoxanthine [2] = variants of: B1; test: normalized RNA/DNA level with ligand (relative to sTRSVctl = 100) (log10 (% of sTRSVctl)); ligand: hypoxanthine (xanthine aptamer); higher = less ribozyme self-cleavage, higher mRNA level; details: ligand concentration (+) RNA-Seq: 5 mM, HEK293T, reporter: mCherry (pCS4076), ligand present: yes
How it was run: (§2)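 Ribozyme switch library plasmids linked to reporters were introduced into HEK293T cells at 4 µg per 6-well well, with ligand, if any, added 1 h before. Total RNA was extracted with EDTA 72 h later, reverse-transcribed, amplified, barcoded and sequenced. RNA level was computed from RNA over DNA reads relative to a spiked-in non-cleaving sequence or the top sequences, then scaled and log-transformed. The top set was 25 sequences, values were ×100 and log10, and the cutoff was ≥100 DNA reads.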

hypoxanthine [3] = variants of: B1; test: normalized RNA/DNA level without ligand (relative to sTRSVctl = 100) (log10 (% of sTRSVctl)); ligand: hypoxanthine (xanthine aptamer); higher = less ribozyme self-cleavage, higher mRNA level; details: HEK293T, reporter: mCherry (pCS4076), ligand present: no
How it was run: as §2

hypoxanthine [4] = variants of: B1; test: FACS-Seq fitted mean relative fluorescence mCherry/BFP with ligand (log10 relative fluorescence); ligand: hypoxanthine (xanthine aptamer); ligand concentration (+) FACS-Seq: 5 mM; higher = higher reporter protein expression; details: HEK293T, ligand present: yes
How it was run: as §1

| Variant | FACS-Seq fitted mean (log10) (hypoxanthine [1]) | normalized RNA/DNA level with ligand (log10) (hypoxanthine [2]) | normalized RNA/DNA level without ligand (log10) (hypoxanthine [3]) | FACS-Seq fitted mean (log10) (hypoxanthine [4]) |
| --- | --- | --- | --- | --- |
| GCUUAG | 0.401 ± 0.077 | 1.83 ± 0.05 | 1.4 ± 0.025 | 0.791 ± 0.096 |
| AUUUGU | 0.6123 ± 2.1e-06 | 1.923 ± 0.01 | 1.638 ± 0.013 | 0.723 ± 0.041 |
| CCAAAC | 0.763 ± 0.049 | 1.93 ± 0.038 | 1.875 ± 0.012 | 0.528 ± 0.086 |
| CCAAAU | 0.00231 ± 0.0079 | 1.93 ± 0.0062 | 1.83 ± 0.058 | 0.404 ± 0.042 |
| CGUAUA | 0.422 ± 0.015 | 1.91 ± 0.025 | 1.641 ± 0.007 | 0.566 ± 0.016 |
| GAAAAC | 0.271 ± 0.058 | 1.87 ± 0.053 | 1.7 ± 0.033 | 0.271 ± 0.06 |
| CCUGUA | 0.473 ± 0.019 | 1.892 ± 0.015 | 1.89 ± 0.041 | 0.515 ± 0.006 |
| UCAUAC | 0.306 ± 0.022 | 1.98 ± 0.041 | 1.89 ± 0.056 | 0.474 ± 0.0069 |
| AAGUUG | -0.243 ± 0.014 | 1.626 ± 0.013 | 1.12 ± 0.013 | 0.435 ± 0.052 |
| CUAUUC | 0.8316 ± 0.0023 | 2 ± 0.02 | 1.84 ± 0.055 | 0.762 ± 0.023 |
| UGGACG | 0.639 ± 0.083 | 1.96 ± 0.082 | 1.68 ± 0.048 | 0.676 ± 0.22 |
| GUUUAG | 0.256 ± 0.013 | 1.81 ± 0.023 | 1.464 ± 0.013 | 0.65 ± 0.013 |
| AGUCGU | 0.577 ± 0.17 | 1.903 ± 0.013 | 1.68 ± 0.029 | 0.561 ± 0.15 |
| GAUGAC | 0.654 ± 0.023 | 1.92 ± 0.02 | 1.72 ± 0.023 | 0.526 ± 0.07 |
| AGGUAG | 0.161 ± 0.019 | 1.73 ± 0.019 | 1.3 ± 0.047 | 0.537 ± 0.019 |
| AAAGGG | 0.0328 ± 0.0085 | 1.753 ± 0.0035 | 1.32 ± 0.073 | 0.292 ± 0.084 |
| AAAGGC | -0.66 ± 0.0082 | 1.91 ± 0.035 | 1.781 ± 0.0092 | -0.684 ± 0.085 |
| UCCAAA | 0.00132 ± 0.058 | 1.937 ± 0.0063 | 1.804 ± 0.0049 | 0.0172 ± 0.041 |
